Measurements taken from patent US20220220224A1 (Hoffmann-La Roche, published 2022).

How the values were obtained:
[1] = target: T1, recombinant biotinylated monomeric Fc fusion of human Folate Receptor 1 (huFolR1 ECD-AcTev-Fcknob-Avi tag … (human, UniProt P0DOX5 223-449 = IgG part, biotin on the C-terminal Avi tag)); experiment: SPR ProteOn, Fab analyte on immobilized antigen-Fc
T1 construct: also called huFolR1-Fc; human FolR1-Fc
Method: (§1) Immobilization of antigens (ligand): Recombinant antigens were diluted with PBST (10 mM phosphate, 150 mM sodium chloride pH 7.4, 0.005% Tween 20) to 10 μg/ml, then injected at 30 μl/minute in vertical orientation. Injection of analytes: For ‘one-shot kinetics’ measurements, injection direction was changed to horizontal orientation, two-fold dilution series of purified Fab (varying concentration ranges) were injected simultaneously along separate channels 1-5, with association times of 200 s, and dissociation times of 600 s. Buffer (PBST) was injected along the sixth channel to provide an “in-line” blank for referencing. Association rate constants (kₒₙ) and dissociation rate constants (koff) were calculated using a simple one-to-one Langmuir binding model in ProteOn Manager v3.1 software by simultaneously fitting the association and dissociation sensorgrams. The equilibrium dissociation constant (KD) was calculated as the ratio koff/kₒₙ.

[2] = target: T2, recombinant biotinylated monomeric Fc fusion of cynomolgus Folate Receptor 1 (cy FolR1 ECD-AcTev-Fcknob-Avi … (cynomolgus, UniProt P0DOX5 223-449 = IgG part, biotin on the C-terminal Avi tag)); experiment: SPR ProteOn, Fab analyte on immobilized antigen-Fc
T2 construct: also called cyFolR1-Fc; cyno FolR1
Method: as §1

[3] = target: T3, recombinant biotinylated monomeric Fc fusion of murine Folate Receptor 1 (mu FolR1 ECD-AcTev-Fcknob-Avitag … (murine, UniProt P0DOX5 223-449 = IgG part, biotin on the C-terminal Avi tag)); experiment: SPR ProteOn, Fab analyte on immobilized antigen-Fc
T3 construct: also called muFolR1-Fc; murine FolR1
Method: as §1

[4] = target: T4, recombinant biotinylated monomeric Fc fusion of human Folate Receptor 2 (hu FolR2 ECD-AcTev-Fcknob-Avi tag … (human, UniProt P0DOX5 223-449 = IgG part, biotin on the C-terminal Avi tag)); experiment: SPR ProteOn, Fab analyte on immobilized antigen-Fc
T4 construct: also called FolR2-Fc
Method: as §1

[5] = target: T5, recombinant biotinylated monomeric Fc fusion of human Folate Receptor 3 (hu FolR3 ECD-AcTev-Fcknob-Avi tag … (human, UniProt P0DOX5 223-449 = IgG part, biotin on the C-terminal Avi tag)); experiment: SPR ProteOn, Fab analyte on immobilized antigen-Fc
T5 construct: also called FolR3-Fc
Method: as §1

[6] = target: T6, human FolR2 on transfected HEK cells (human, UniProt P14207 17-230); experiment: flow cytometry on transfected HEK cells
T6 construct: whole, on cells

[7] = target: T3, recombinant biotinylated monomeric Fc …; experiment: SPR Biacore, single injection on immobilized antigen-Fc
Method: (§2) Binding of FolR1 binders as IgG or in the T-cell bispecific format to different recombinant folate receptors (human FolR1, 2 and 3, murine FolR1 and cynomolgus FolR1; all as Fc fusions) was assessed by surface plasmon resonance (SPR). All SPR experiments were performed on a Biacore T200 at 25° C. with HBS-EP as running buffer (0.01 M HEPES pH 7.4, 0.15 M NaCl, 3 mM EDTA, 0.005% Surfactant P20, Biacore, Freiburg/Germany).
(§3) First the anti-FolR1 IgGs were analyzed by single injections (Table 1) to characterize their crossreactivity (to human, murine and cyno FolR1) and specificity (to human FolR1, human FolR2, human FolR3). Recombinant biotinylated monomeric Fc fusions of human, cynomolgus and murine Folate Receptor 1 (FolR1-Fc) or human Folate Receptor 2 and 3 (FolR2-Fc, FolR3-Fc) were directly coupled on a SA chip using the standard coupling instruction (Biacore, Freiburg/Germany). The immobilization level was about 300-400 RU. The IgGs were injected for 60 seconds at a concentration of 500 nM.

[8] = target: T4, recombinant biotinylated monomeric Fc …; experiment: as above
Method: as §2, §3

[9] = target: T5, recombinant biotinylated monomeric Fc …; experiment: as above
Method: as §2, §3

[10] = target: T2, recombinant biotinylated monomeric Fc …; experiment: SPR Biacore, affinity (monovalent), antibody captured via anti-Fab
Method: as §2
For affinity measurement, direct coupling of around 6000-7000 resonance units (RU) of the anti-human Fab specific antibody (Fab capture kit, GE Healthcare) was performed on a CM5 chip at pH 5.0 using the standard amine coupling kit (GE Healthcare). Anti-FolR1 IgGs or T cell bispecifics were captured at 20 nM with a flow rate of 10 μl/min for 20 or 40 sec, the reference flow cell was left without capture. Dilution series (6.17 to 500 nM or 12.35 to 3000 nM) of human or cyno Folate Receptor 1 Fc fusion were passed on all flow cells at 30 μl/min for 120 or 240 sec to record the association phase. The dissociation phase was monitored for 240 s and triggered by switching from the sample solution to HBS-EP. The chip surface was regenerated after every cycle using a double injection of 60 sec 10 mM Glycine-HCl pH 2.1 or pH 1.5. Bulk refractive index differences were corrected for by subtracting the response obtained on the reference flow cell 1. The affinity constants for the interactions were derived from the rate constants by fitting to a 1:1 Langmuir binding using the Bia Evaluation software (GE Healthcare).

[11] = target: T2, recombinant biotinylated monomeric Fc …; experiment: SPR Biacore, avidity (bivalent, apparent KD), antigen-Fc on SA chip
Method: as §2
Recombinant biotinylated monomeric Fc fusions of human, cynomolgus and murine Folate Receptor 1 (FolR1-Fc) were directly coupled on a SA chip using the standard coupling instruction (Biacore, Freiburg/Germany). The immobilization level was about 300-400 RU. The anti-FolR1 IgGs or T cell bispecifics were passed at a concentration range from 2.1 to 500 nM with a flow of 30 μL/minutes through the flow cells over 180 seconds. The dissociation was monitored for 600 seconds. Bulk refractive index differences were corrected for by subtracting the response obtained on reference flow cell immobilized with recombinant biotinylated IL2 receptor Fc fusion. […] The binding curves resulting from the bivalent binding of the IgGs or T cell bispecifics were approximated to a 1:1 Langmuir binding and fitted with that model (which is not correct, but gives an idea of the avidity). The apparent avidity constants for the interactions were derived from the rate constants of the fitting using the Bia Evaluation software (GE Healthcare).

T6 sequence (P14207 17-230): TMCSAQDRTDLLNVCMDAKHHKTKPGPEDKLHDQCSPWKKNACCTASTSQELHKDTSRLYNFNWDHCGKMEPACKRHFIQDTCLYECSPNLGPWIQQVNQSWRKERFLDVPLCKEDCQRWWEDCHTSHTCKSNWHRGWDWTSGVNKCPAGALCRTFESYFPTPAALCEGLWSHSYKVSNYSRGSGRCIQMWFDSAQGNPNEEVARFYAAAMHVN

Binder | Kd [1] [nM] | Kd [2] [nM] | binding result [3] | binding result [4] | binding result [5] | binding result [6] | binding result [7] | binding result [8] | further results
15B6 Fab (Fab, V domains shown, bacterial Fab) VH: QVQLVQSGAEVKKPGASVKVSCKASGYTFTSYYMHWVRQAPGQGLEWMGIINPSGGSTSYAQKFQGRVTMTRDTSTSTVYMELSSLRSEDTAVYYCARNYYIGIVPFDYWGQGTLVTVSS VL: QAVVTQEPSLTVSPGGTVTLTCGSSTGAVTTSNYANWVQEKPGQAFRGLIGGTNKRAPGTPARFSGSLLGGKAALTLSGAQPEDEAEYYCALWYSNLWVFGGGTKLTVL | 19.1 | 13.9 | no binding | no binding | no binding |  |  |  | 
16D5 IgG (antibody, V domains shown, human IgG1) VH: not shown VL: QAVVTQEPSLTVSPGGTVTLTCGSSTGAVTTSNYANWVQEKPGQAFRGLIGGTNKRAPGTPARFSGSLLGGKAALTLSGAQPEDEAEYYCALWYSNLWVFGGGTKLTVL |  |  |  |  |  | no binding | no binding (tested: 500 nM) | no binding (tested: 500 nM) | binding result [9]: no binding (tested: 500 nM)
16D5 Fab (Fab, V domains shown, bacterial Fab) VH: not shown VL: QAVVTQEPSLTVSPGGTVTLTCGSSTGAVTTSNYANWVQEKPGQAFRGLIGGTNKRAPGTPARFSGSLLGGKAALTLSGAQPEDEAEYYCALWYSNLWVFGGGTKLTVL |  |  | no binding | no binding | no binding |  |  |  | 
16F12 Fab (Fab, V domains shown, bacterial Fab) VH: QVQLVQSGAEVKKPGASVKVSCKASGYTFTSYYMHWVRQAPGQGLEWMGIINPSGGSTSYAQKFQGRVTMTRDTSTSTVYMELSSLRSEDTAVYYCARNFTVLRVPFDYWGQGTLVTVSS VL: QAVVTQEPSLTVSPGGTVTLTCGSSTGAVTTSNYANWVQEKPGQAFRGLIGGTNKRAPGTPARFSGSLLGGKAALTLSGAQPEDEAEYYCALWYSNLWVFGGGTKLTVL | 68 | 90.9 | no binding | no binding | no binding |  |  |  | 
21A5 IgG (antibody, V domains shown, human IgG1) VH: not shown VL: QAVVTQEPSLTVSPGGTVTLTCGSSTGAVTTSNYANWVQEKPGQAFRGLIGGTNKRAPGTPARFSGSLLGGKAALTLSGAQPEDEAEYYCALWYSNLWVFGGGTKLTVL |  |  |  |  |  | no binding | no binding (tested: 500 nM) | no binding (tested: 500 nM) | 
Farletuzumab (antibody, V domains shown) VH: EVQLVESGGGVVQPGRSLRLSCSASGFTFSGYGLSWVRQAPGKGLEWVAMISSGGSYTYYADSVKGRFAISRDNAKNTLFLQMDSLRPEDTGVYFCARHGDDPAWFAYWGQGTPVTVSS VL: DIQLTQSPSSLSASVGDRVTITCSVSSSISSNNLHWYQQKPGKAPKPWIYGTSNLASGVPSRFSGSGSGTDYTFTISSLQPEDIATYYCQQWSSYPYMYTFGQGTKVEIKR |  |  |  |  |  |  |  |  | Kd [10]: 67.3 nM; Kd [11]: 0.65 nM
